For data set [1], the target named is tA27-WT (aa 21–84, C71A/C72A, extra N-terminal tryptophan) (vaccinia virus (Western Reserve strain)) (UniProt P11258). Briefly: SEC-MALS. For orientation: SEC sorts molecules by how far they enter the pores of the column.
For data set [2] the target is unchanged. Briefly: AUC.
Data set [3] concerns the molecule itself. Briefly: non-reducing SDS-PAGE with immunoblot (disulfide-linked complexes). (In western blotting, separated proteins are transferred to a membrane and probed.)

Take “tA27-WT (aa 21–84, C71A/C72A, extra N-terminal tryptophan) (from UniProt P11258 21-84) (domain or fragment)”: the stoichiometry N in data set [1] and in data set [2] was 2 throughout.

B1: Vaccinia virus A27 protein, full length wild type (natural protein)
chain: MDGTLFPGDDDLAIPATEFFSTKAAKKPEAKREAIVKADEDDNEETLKQRLTNLEKKITNVTTKFEQIEKCCKRNDEVLFRLENHAETLRAAMISLAKKIDVQTGRRPYE
With B1, the stoichiometry N (in general, the number of molecules, sites or subunits per partner or assembly) in data set [3] is 2.
